The target of series [1] is T1, ArdC (Escherichia coli plasmid R388 …, UniProt Q6I6B2 22-318).
T1 sequence: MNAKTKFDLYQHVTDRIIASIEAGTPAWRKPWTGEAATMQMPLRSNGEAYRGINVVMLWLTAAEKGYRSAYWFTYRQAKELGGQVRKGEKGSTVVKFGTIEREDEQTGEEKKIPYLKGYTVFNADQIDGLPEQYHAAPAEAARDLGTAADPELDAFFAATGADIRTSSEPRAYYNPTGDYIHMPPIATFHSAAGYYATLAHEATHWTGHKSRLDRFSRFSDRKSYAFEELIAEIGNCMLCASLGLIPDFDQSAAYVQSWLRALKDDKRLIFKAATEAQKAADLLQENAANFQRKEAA
Description: EMSA; 0-1 uM ArdC, 50 nM DNA; preferred over dsDNA; EMSA: 50 mM NaCl, 25 mM Tris-HCl pH 7.5, 0.5 mM EDTA, room temperature 30 min, 50 nM DNA; 10% native PAGE in cold 1x TBE. To be noted: protein: recombinant; label: 6FAM (5'); single strand.

In series [2] the target is T1, ArdC. Description: EMSA; 0-1 uM ArdC, 50 nM DNA; preferred over blunt duplex; EMSA: 50 mM NaCl, 25 mM Tris-HCl pH 7.5, 0.5 mM EDTA, room temperature 30 min, 50 nM DNA; 10% native PAGE in cold 1x TBE. To be noted: protein: recombinant, label: 6FAM (5' of strand 1). (Mobility shift assays separate free from complexed probe on a gel.)

B1: Fluor-T87I2 (45 b ssDNA) (ssDNA)
DNA: TACGCTCTTGGGCGCGCTGAATATGAGGTCAAGGCCGATGCGCTC
For B1, the binding result in the series with ArdC [1] is listed as “binds”.

B2: Fluor-T87I2 + Mid2 (partial duplex) (mixed)
DNA 1: TACGCTCTTGGGCGCGCTGAATATGAGGTCAAGGCCGATGCGCTC
DNA 2: CTCATATTCAGCGCGCCCAAGAGCGTA
B2: the binding result with ArdC [2] (27 bp duplex, 3' overhang 18 nt (strand 1)) was “binds”.

B3: Fluor-T87I2 + Mid1 (partial duplex) (mixed)
DNA 1: TACGCTCTTGGGCGCGCTGAATATGAGGTCAAGGCCGATGCGCTC
DNA 2: GAGCGCATCGGCCTTGAC
In the case of B3, the binding result in the series with ArdC [2] (18 bp duplex, 5' overhang 27 nt (strand 1)) was “binds”.

The values are drawn from PMC7213743, “ArdC, a ssDNA-binding protein with a metalloprotease domain, overpasses the recipient hsdRMS restriction system broadening conjugation host range”.
